Assay results reported in patent publication US20260193638A1 (ROCHE DIAGNOSTICS OPERATIONS, published 2026).

What was measured:
[1] = biological target: T1, human recombinant TNFα (fully intact trimeric TNFα) (human, UniProt P01375 77-233); assay: SPR, TT10F7 captured, TNFα (52 kDa trimer) in solution, + TWEEN 20
T1 construct: also called hrTNFα
Procedure: (§1) The samples were diluted in the instrument's buffer. In another embodiment the buffer was HBS-E buffer (10 mM HEPES pH 7.4, 150 mM NaCl, 3 mM EDTA) and the samples were diluted in the detergent-free buffer. The system operated at 25° C. 10000 RU GAR-Fcγ (relative units of Fcγ-fragment binding, polyclonal goat anti-Rabbit IgG/Jackson Laboratories) were immobilized according to the manufacturer's instructions using EDC/NHS chemistry on all 4 flow cells. The sensor is finally deactivated using 1M ethanolamine. […] A monoclonal rabbit anti-Thermus thermophilus SlyD core protein (0612pS3A8) binding antibody, was captured in all flow cells by a 6 min injection at 5 μl/min. […] Flow cell 1 served as a reference. […] The Thermus thermophilus SlyD-FKBP clones were specifically captured on the sensor by a 2 min injection at 30 μl/min directly from a 1:25 diluted 10000 g-centrifuged E. coli lysate supernatant.
(§2) The flow rate was set to 100 μl/min. […] The dissociation was monitored for 5 minutes.

[2] = biological target: T1, human recombinant TNFα (fully intact …); assay: SPR, TT10F7 captured, TNFα (52 kDa trimer) in solution, - TWEEN 20
Procedure: as §1, §2

[3] = biological target: Streptavidin (11897000, Roche) (UniProt P22629 37-163, limits assumed); assay: SPR, TT10F7 captured via anti-SlyD antibody, streptavidin in solution
Chain of Streptavidin (11897000, Roche) (P22629 37-163 limits assumed): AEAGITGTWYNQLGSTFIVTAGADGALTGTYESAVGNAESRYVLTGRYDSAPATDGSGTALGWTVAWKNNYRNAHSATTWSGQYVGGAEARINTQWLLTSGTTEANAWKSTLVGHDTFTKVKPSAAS
Procedure: as §1, §2

[4] = biological target: T1, human recombinant TNFα (fully intact …); assay: SPR BIACORE 3000, TT10F7 captured via anti-SlyD antibody, trimeric TNFα as analyte
Procedure: as §1, with “A CM5 series sensor was mounted into the system and was normalized in HBS-ET buffer (10 mM HEPES pH 7.4, 150 mM NaCl, 3 mM EDTA, 0.005% w/v Tween 20) according to the manufacturer's instructions. The samples” for “The samples”
as §2

[5] = biological target: T1, human recombinant TNFα (fully intact …); assay: SPR, C10B9 captured via anti-SlyD antibody, TNFα in solution
Procedure: as §1, §2

T1 sequence (P01375 77-233 limits assumed): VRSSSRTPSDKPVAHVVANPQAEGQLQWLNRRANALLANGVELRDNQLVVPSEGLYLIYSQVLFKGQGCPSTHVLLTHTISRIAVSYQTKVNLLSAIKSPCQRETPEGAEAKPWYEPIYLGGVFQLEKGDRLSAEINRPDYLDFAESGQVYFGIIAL

B1: Thermus thermophilus SlyD-FKBP TT10F7 (designed binder)
chain: MRSKVGQDKVVTIRYTLQVEGEVLDQGELSYLHGHRNLIPGLEEALEGREEGEAFQAHVPAEKAYGAGSWKPHFNLHLLYLIGSSGKDLDFQVEVVKVREATPEELLHGHAHGGAAAGLNDIFEAQKIEWHEGSRKHHHHHHHH
notes: captured on the sensor directly from E. coli lysate; also called TT10F7 mutant; TT10F7 T.t.SlyD-FKBP12
Kd [1]: 258 nM | koff [1]: 0.00268 s⁻¹ | kon [1]: 10400 M⁻¹ s⁻¹ | Kd [2]: 262 nM | koff [2]: 0.00103 s⁻¹ | kon [2]: 3960 M⁻¹ s⁻¹ | binding result [3]: no binding (tested: 1 µM) | stoichiometry [4]: 3 to 1

B2: Thermus thermophilus SlyD-FKBP clone C10B9 (designed binder)
chain: MRSKVGQDKVVTIRYTLQVEGEVLDQGELSYLHGHRNLIPGLEEALEGREEGEAFQAHVPAEKAYGAGSYYVLITDNLVYFGGSSGKDLDFQVEVVKVREATPEELLHGHGGAAAGLNDIFEAQKIEWHEGSRKHHHHHHHH
notes: also called C10B9 mutant
binding result [5]: no binding (tested: 1 µM)
